According to article PMC5536003:
One block for each molecule: values may come before it.

Molecular target: CXC chemokine receptor (CXCR)3, CXCR3A (UniProt P49682)
UniProt P49682, sequence (P49682 whole entry): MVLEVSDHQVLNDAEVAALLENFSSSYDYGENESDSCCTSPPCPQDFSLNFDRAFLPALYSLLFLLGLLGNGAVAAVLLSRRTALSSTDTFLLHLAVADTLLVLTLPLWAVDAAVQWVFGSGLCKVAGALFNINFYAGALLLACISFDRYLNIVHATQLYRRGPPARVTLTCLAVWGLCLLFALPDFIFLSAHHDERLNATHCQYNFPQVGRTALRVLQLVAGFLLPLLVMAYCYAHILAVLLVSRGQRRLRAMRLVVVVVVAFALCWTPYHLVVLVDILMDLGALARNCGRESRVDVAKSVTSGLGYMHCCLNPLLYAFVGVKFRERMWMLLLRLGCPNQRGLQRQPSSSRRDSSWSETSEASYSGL

increase of [Ca2+]i in Fura-2-loaded CHO/CXCR3A cells stimulated with 3 ng/mL CXCL10 (no GAG): 107 nM
Molecule: CXC chemokine ligand (CXCL)10 (from UniProt P02778 22-98)

increase of [Ca2+]i in Fura-2-loaded CHO/CXCR3A cells stimulated with 1 µg/mL CXCL9 (no GAG): 598 nM
B1: CXC chemokine ligand (CXCL)9 (ligand)
chain: TPVVRKGRCSCISTNQGTIHLQSLKDLKQFAPSPSCEKIEIIATLKNGVQTCLNPDSADVKELIKKWEKQVSQKKKQKNGKKHQKKKVLKVRKSQRSRQKKTT

increase of [Ca2+]i in Fura-2-loaded CHO/CXCR3A cells stimulated with 3 ng/mL CXCL11 (no GAG): 304 nM
B2: CXC chemokine ligand (CXCL)11 (ligand)
chain: FPMFKRGRCLCIGPGVKAVKVADIEKASIMYPSNNCDKIEVIITLKENKGQRCLNPKSKQARLIIKKVERKNF
